From a protein production outcome set (Wang et al. 2014)

Experiment: label from the status in PepcDB records

Sequence | protein production
MAASQTPARILVTGVAGNLGRKVVEALASTPWCTSIIGVDWVEQSMQFSPQAAQRLRWVVADLTQADGAWTALLDEVDAVIHLAAIHSTPDATWEQALASYGMTLNVLQAAATRGVRRFVFASSNHAMGAYKDQPLAGTIGPGRLIAELAPAPGTRWHNGIEEVYSLAYGTSKAMGERLCKAVAAVSGGRLSVVALRIGWALPDDNDPNDINHSGTADTPVPGSVPDEASRIALRWFRNMWLSNDDLRQLFIAAVTADPARWPAPAIVVNGVSNNTGMDWGLETGRALIGYEPQDDLYARLTQPA | failed
MQTVPSSDGTPIAFERSGSGPPVVLVGGALSTRAGGAPLAERLAPHFTVICYDRRGRGDSGDTPPYAVEREIEDLAAIIDAAGGAAFVFGMSSGAGLSLLAAASGLPITRLAVFEPPYAVDDSRPPVPPDYQTRLDALLAEGRRGDAVTYFMTEGVGVPPDLVAQMQQAPMWPGMEAVAHTLPYDHAVMGDNTIPTARFASISIPTLVMDGGASPAWIRHTAQELADTIPNARYVTLENQTHTVAPDAIAPVLVEFFTR | not failed
MAEQMRRVARLFGDWPETIIWTCLEGTMGDIYVDDSQSPQSALALYGRQSFFGFLAGQPHRDLLKICEGKNIILVPQNQAWSDLIEEVYGDGVRFFTRYATKKDTEFDLGHLQKLVDDLPESFDMKLIDRNLYETCLVEEWSRDLVGNYIDVEQFLDLGLGCVILHKGQVVSGASSYASYSAGIEIEVDTREDYRGLGLAKACAAQLILACLDRGLYPSWDAHTLTSLKLAEKLGYELDKAYQAYEWR | not failed
MDFSKAFGLVYKALDYRSLRQDMIASNIANVDTPFYRPKDLDFESVLAKKKAEIFENQSSKVLPLAHTNPRHLDFENSAKDGASLFFRDGHLAKNDGNSVDLDIETSEMGKNSTMYLALSSALKKYRGVINYAIDSSKNL | failed
MLIREAKLAGTPEQFAQLDAAIRTAQCVHNRCLRYWRDNAGVSKNDLQKFCAVLAKDAEQPWMGLLNSQARQAAAERTWQSIQSFYRRCKEGAKHKGYPKFKKHSRSVEYKTSGWKLSDDGMSITFTDGFKAGQLELWLDGSARQLILSSKINRVRVVRRADGYYAQFCLDVERQEAGVYSGNVIGLDLGLKYFTKDSNGAEVACPKFFRKGEKRLRRAQRRLSKRFKKGAKPQSKNYHKQRQRIGKVHLKIQRQRKSWAIEQARRVMVSNDIVVYEDLRVPNLVRSRHLAKSIHDAGWTQFTHWLDYYGKLWRKVVVAVNPAYTSQDCSGCGYRVQKSLSTRTHDCPHCGLTICRDQNAALNILKRGLEVVGAEWNNGTAGHAETGSQEQTTGEISTSAEVGQPTSVSAVAEPVRTSREAV | failed
MSGSAADPPSPDRLAGVFSVSSVRRTDGTVQYLGNPLVPPDAVAEQLRPVFRQRGYDVRLEELGPESATGTTVTSNGETTVVDDPGANDSIAPGGAVNTRPGQYALVAEPVGTDTGGVPWLNIGLLLATIASTLYVGASAWYYIPVAKNPLRVFEAWPFMVAMLGVLGIHELGHYAAARYHGVDVTLPYFIPFPSYLGTMGAVINIRGRIPDRTALFDIGVAGPLAGLVATTIVTVIGLSIDPITVPERVANSDTGVIITFNYPLLFQALEALVNALGLGTEVGPGESVHPIVFAGWAGMFFTFLNLLPVGQLDGGHIVRSIVGRRQETIAAAVPGALFALAGYLYFTRDPPPVGFGVWGLWVFWGLFATGLAYAGPARPTVDTALDRRRALLGLFTFLLGIACFTPVPFEISAV | failed
MSLNARARALRHSRSGTIGLIVPDVNNAVFADMFSGVQMAASGHSTDVLLGQIDAPPRGTQQLSRLVSEGRVDGVLLQRREDFDDDMLAAVLEGVPAVTINSRVPGRVGSVILDDQKGGGIATEHLITLGHSRIAFISGTAIHDTAQRRKEGYLETLASAGLRSEAAWVVDAGWEADAGSAALNTLYRGANLGKPDGPTAVVVASVNAAVGALSTALRLGLRVPEDLSIVGINTTWVSDTVYPALTTVRLPLQRLGEVAADVLMEHLGGRALTDTVVTQPTPELLVRETTAPPTREGHHHHHH | not failed
MTDLPPPFTTLAAAHRVDAVIDHSEFLAFAERADSPEEALAHLAALRTRYPDATHHCWAYRIGAAYRFGDDGEPGGTAGAPILRAIEGQGVDHVMVVVVRYYGGVKLGTGGLVRAYGGVAAECLRTAPRLDVRPRRTLQVSVPFDHLSGLYHLLGTWDAARGEETYTGAGVTLPVEVYPEDVEAFQAALRDATRGSAVVEEEE | not failed
SSTQGWADGLLTDIAHVRAHISDEFLFSSASTLNEIALAADIEERTQSVDVFLGNSLFVRLVDMFGRLNTEVFTNRGASGIDGLFATASGVQRSRGKPLLMYIGDTSALYDLNSLALFSRNDLPSVLVVTNNDGGAIFDMLPVPQEHRTAYYQMPHGYQFEHAAKQFGLKYEKPTTLQMYQAMVADHLSSGQGTMLVEVQTPPSQAAELIKAFNKSLHASL | failed
MKSLHRPDLYSWSTFNPARNIDFNGFAWIRPEGNILIDPVALSNHDWKHLESLGGVVWIVLTNSDHVRSAKEIADQTYTKIAGPVAEKENFPIYCDRWLSDGDELVPGLKVMELQGSKTPGELALLLEETTLITGDLVRAYRAGGLEILPDEKLMNKQKVVASVRRLAALEKVEAVLVGDGWSVFRDGRDRLKELVATLA | not failed
MCTSLTLETKNGQHLFARTMDFTLDMNQEVIIIPRHYQWNNITGEIINTKHATVGMGINHQGRIIMADGVNEAGMTCATLYFPGFATYSQSIDDNTTNLAPFDFVTWSLTQFNSVKELKKSVDSITFLDIPLPDLGLTPPLHWILADKWGDCIVLDPTSEGLKLYDNPLGVMTNSPEFNWHLQNLRQYIGLKSQPFAPTEWSNLPLSAFGQGSGSMGLPGDFTPPSRFVRAAYGKQNIQGIDSEEEGVSALFHILSNCEVPKGGVITEEGALDNTIYTSVMCMESGTYYYHTYDCRQIIAVHLFHENLDTDEIKAYPFQRKQKIFYEN | failed
MWDALTNWLNLWVGQIEATVFQNVVLPVVYNLGFGGYAEDAFTGTEWLLVGLVQIAVMVLILGPLERLRPVEVVTDRAAIRTDILYTLIHRLGLFRLAMFFLLAPLMDGIEGHLRLLGWQRVNVEDWWPGVTSIPLISFSLYLALFDLLDYWYHRLSHTYRWWWSLHAVHHSQRQMTLWSDNRNHLLDDILRDFVFAAVALAVGVEPSQYVLLVALSQLLQSLQHANLRLHFGWLGERLLISPRFHRTHHAVGLGHEKRATAEKPARLGGCNYGVIFPWWDMLFGTADFTDVYHPTGIRDQMPPPAGRARSYGDGFLSQQWLGIKRLLRLG | failed
MPALSGPQYLGEGLKLIMRPGLRLFVLIPLTLNLLVFALLIGFAMQQFSHWVDLLMPSLPDWLSFLQYIVWPLFVLLVLVIVFFTFTMVANIISAPFNGFLSEKVEVVVRGRDDFPPFSWAELLAMIPRTMGREMRKLAYFLPRALVLLVLSFVPGVNLIATPLWILFGIWMMAVQYIDYPADNHKLGWNEMLAWLRSKRWACMGFGGVTYLALLIPLVNLVMMPAAVAGATLFWVREEGERALVK | failed
LKCSTVVCVICLEKPKYRCPACRVPYCSVVCFRKHKEQCNPET | not failed
MKQRRKGQENSDTEEMISRIYPYITRVFDIYEIQKSGEILYFFGTPKTDAENVMGELWAPLEQRGLGGTLKYELGEHVLIVTPVKKAKEKHWVNLALFIATVFTTMICGAWLFGVDLWSEPLQIFQGLPFTLAILAVLGSHEMAHYAMARHHGMKTSLPYFIPFPTFIGTMGAVIRYRGPIPDRKALFDVGIAGPLVGLLVSIVVTIIGLNLDVPAVKPLPDSLMFELGLPPLFVMLQKLVGVTGSNLHPVAFAGWVGMFVTLLNLLPAGQLDGGHVLRAMLGKKADWVSSMMPRILLMIGIYVVYGLKGDGFIWIFWALFLWAFAAAGHPSPLHDKMKLDRKRILIGILTFILGLLCFTLIPFKPIT | failed
MKIIVKTLKGIRFEIEVKPNDSVAEVKKNIETVMGASEYPAAQQILIHKREKLRDETTMEANKVFDKSVIAIIITKGCLEEMEKQNPPLFQMIRHNSAGFVPVLNKESFERDNELAQPEEDLLQLQVTAVDDEAINRVLFYS | failed
